Literature values, collected in article PMC6886688.

System: Tyr134

Substance: Cellular retinoic acid binding protein 2 (CRABP2) (Homo sapiens (inferred; not stated in the article))
- pKa: ~7.6
